The target of test [1] is MART126(27L)-35 pT9A/HLA-A2 (UniProt Q16655). Put plainly: SPR steady state (Biacore 3000), TCR immobilised, pMHC injected; relative to the unsubstituted ELA peptide.
Test [2] concerns the target MART126(27L)-35 pE1A/HLA-A2 (UniProt Q16655). The test is described as above.
Test [3] has as its target MART126(27L)-35 pE1D/HLA-A2 (UniProt Q16655). The description is as above.
The target of test [4] is MART126(27L)-35 pG6-Sarc/HLA-A2 (UniProt Q16655). Described as above.
Test [5] addresses MART126(27L)-35 pI5E/HLA-A2 (UniProt Q16655). The test is described as above.
Test [6] concerns the target MART126(27L)-35 pE1F/HLA-A2 (UniProt Q16655). The test is described as above.
The target of test [7] is MART126(27L)-35 pE1Q/HLA-A2 (UniProt Q16655). Described as above.
The target in test [8] is MART126(27L)-35 pG6-Sarc/HLA-A2 (UniProt Q16655). The experiment in a line: SPR steady state, TCR immobilised, pMHC injected.
The target in the next test is MART126(27L)-35/HLA-A2 (UniProt Q16655). The experiment in a line: SPR steady state (Biacore 3000), TCR immobilised, pMHC injected; relative to wild type. A general note: SPR reads the build-up and loss of mass on a sensor chip optically.
The subject of the next test is DMF5 TCR. The experiment in a line: SPR binding of MART126(27L)-35 peptide variants/HLA-A2 to DMF5 TCR. As to conditions: ELA peptide substitution vs native peptide, SPR steady state, 25° C. As for the experimental part:
Briefly, the TCR a and b chains, the HLA-A2 heavy chain, and b2-microglobulin (b2m) were generated in Escherichia coli as inclusion bodies, which were isolated and denatured in 8 M urea. TCR a and b chains were diluted in TCR refolding buffer (50 mM Tris (pH 8), 2 mM EDTA, 2.5 M urea, 9.6 mM cysteamine, 5.5 mM cystamine, 0.2 mM PMSF) at a 1:1 ratio. HLA-A2 and b2m were diluted in MHC refolding buffer (100 mM Tris (pH 8), 2 mM EDTA, 400 mM L-arginine, 6.3 mM cysteamine, 3.7 mM cystamine, 0.2 mM PMSF) at a 1:1 ratio in the presence of excess peptide. TCR and pMHC complexes were incubated for 24 h at 4° C. Afterward, complexes were desalted by dialysis at 4° C. and room temperature respectively, then purified by anion exchange followed by size-exclusion chromatography. Refolded protein absorptions at 280 nm were measured spectroscopically and concentrations determined with appropriate extinction coefficients. Mutations in TCR a and b chains were generated by whole-plasmid mutagenesis and confirmed by sequencing. Peptides were synthesized and purified commercially.
Surface plasmon resonance: Surface plasmon resonance experiments were performed with a Biacore 3000 instrument using CMS sensor chips as previously described^15. In all studies, TCR was immobilized to the sensor chip via standard amine coupling and pMHC complex was injected as analyte. Studies were performed at 25° C. in 20 mM HEPES (pH 7.4), 150 mM NaCl, 0.005% Nonidet P-20. All studies were steady-state experiments measuring RU vs. concentration of injected analyte, and were performed with TCRs coupled onto the sensor chip at 400-2000 response units. Injected pMHC spanned a concentration range of 0.1-150 μM at flow rates of 5 μl/min. Data were processed with BioEvaluation 4.1 and fit using a 1:1 binding model utilizing MATLAB 2015b.
Next, eight MART126(27L)-35 peptide variants with a broad range of complex scores were selected for experimental testing with DMF5. A peptide was also examined with a non-standard sarcosine (N-methyl glycine) substituted for Gly6 of the peptide to help test the implications of treating structured water explicitly in the DMF5 interface as discussed above and shown in FIG. 5.

For the substance DMF5 TCR (wild type, soluble), the ΔΔG° is 1.6 kcal/mol in test [1]; 0.06 kcal/mol in [2]; 1.3 kcal/mol in test [3]; -0.58 kcal/mol in test [4]; 3.07 kcal/mol in test [5]; 2.26 kcal/mol in [6]. The substance also yielded a ΔΔG° in test [7] of 1 kcal/mol. Moreover, the fold affinity enhancement over the unsubstituted peptide in [8] came out at 3 fold.
The substance DMF5 TCR T54αI displayed a ΔΔG° in the test with MART126(27L)-35/HLA-A2 of 0.33 kcal/mol.
Consider “PE1Q: MART126(27L)-35 (ELA) peptide with E1Q substitution, presented by HLA-A2 (QLAGIGILTV; MART-1 26-35 peptide; UniProt Q16655 26-35, looked up, variant A27L E26Q)”, for which, in the test on DMF5 TCR, the “ΔΔG°” value turned out to be 1.0 kcal/mol.
The same measure, in the same setting: the same measure for “pE1D: MART126(27L)-35 (ELA) peptide with E1D substitution, presented by HLA-A2 (DLAGIGILTV; MART-1 26-35 peptide; UniProt Q16655 26-35, looked up, variant A27L E26D)”: 1.3 kcal/mol; for “pE1F: MART126(27L)-35 (ELA) peptide with E1F substitution, presented by HLA-A2 (FLAGIGILTV; MART-1 26-35 peptide; UniProt Q16655 26-35, looked up, variant A27L E26F)”: 2.26 kcal/mol.
Same read-out and setting: the figure for “pI5E: MART126(27L)-35 (ELA) peptide with I5E substitution, presented by HLA-A2 (ELAGEGILTV; MART-1 26-35 peptide; UniProt Q16655 26-35, looked up, variant A27L I30E)” is 3.07 kcal/mol; for “pT9W: MART126(27L)-35 (ELA) peptide with T9W substitution, presented by HLA-A2 (ELAGIGILWV; MART-1 26-35 peptide; UniProt Q16655 26-35, looked up, variant A27L T34W)” it is >3 kcal/mol.

The values are drawn from patent US20190147972A1, “BIOMOLECULE DESIGN MODEL AND USES THEREOF” (University of Notre Dame du Lac, priority 2016, published 2019).
